From the DeepSol protein solubility set

assay: soluble on expression in E. coli; label from the status in PepcDB or PDB records

Soluble on expression in E. coli, not soluble:
MGSDKIHHHHHHMNEDLFYDRLHQRCPGKYLLEELETSKSNDVLHASRFVCEMELVQKTNAYYCKTIVKMLLDHEWIFAKAFTIVNDGEDEIEIYDYLYEKYIKLLSTGKPDPMMKDVVRYRFDEDVKITIEETPNLISAASTTGFRTWEAALYMGDFLIHKPLQELAPVQGQDDGKKKLNVLEVGAGTGIVSLVILQKYHEFVNKMYVTDGDSNLVETQLKRNFELNNEVRENEPDIKLQRLWWGSDRVPEDIDLVVGADVTYDPTILPDLCECLAECLALDRCKLCLLSATIRSESTVQLFSQECNKLGLKCTIVTSTEYDANNEIRAMKALQFKPLIAPIRIYKITKQ
MGSDKIHHHHHHMNFSTTEIQTIFNANEAASAVLNQALEAAAQGTFAVGGMIVDNQTGNVICAMHNNVLKPLFGSSQNFTFDPTAHGERQLVYWYYANRHQLNLPDPEYLTIITTLDPCAMCAGTLLTAGFNVGVIAIDDFAGINYNQTFNFDTLPPDLRPLAKRKFGYYACGIKGVDPDIYVRGYVGGPNVAFKDSVVSVQNLTGCNNVFQANVEAVRNNSSNSGKAPQELFDPAALPDDAPVKLRYRELYADAFRLKIDNPRLPDKNLLDLLLYVKGSNPTAQNAVALLDPFGNVVLCMPDTFENSPVETAFMNVTQAYAITRYQLMNDPFARAQAYDYLTHPKYGTFVFLNAPNPADARTIMTLGAYGSTMEGPVPQIFPSNFQYYFLPQYGTEREFRLDIMNLPPFYTQLAQLSAMQVANY
MGSDKIHHHHHHMNIQEKSKIEYRSRINRVMDYIDIHLDQPLELKSIAEIANFSPFHFHRIFTFLIGETPIDYIQRLRIEKAACRLRENMDISISEIADSCGFCTVSLFSRVFKKFFGLTPSQFRKTERPVYAQDGILFSKNGQMVSKNLTPKHVLSPQLCSVKFKISYFMETKIEVKEMPDMKAVYCRHMGAFKEIVKAYEKLIKWAEPRGLYIPNVTKSATVTHDDPSVTELSKVRQSACIIVEGDVKGEGEIGNLVIPGGQYAVGHFELGTEDFEKAWNTMCKWFTESGYQQGDGCTYELYHNSHRTHPENKHIVDICIPIKPL
MGSDKIHHHHHHMNIQQLRYVVAIANNGTFREAASKLFVSQPSLSVSIKDLEAELGFQIFNRTTSGTVLTSQGLVFYEKALEVVKSFDSFEKTFSQADLDQNEFSIASQHYDFLPPLITAFSQQYDGHRVFRIFESTTIQILDEVAQGNSEIGIIYLNVDNQKGLFQRMDKLGLEYVSLIPFTTHIYLSKTHPLANREALYLNDIQGLPAVRFTQERDEYLYYSENFVDTSECPRIYNVSDRATLNGILERTNAFATGSGFLDHRSVNGIKVIPLADHIDNQMIYVKRKDKNLSVAGATFVTILKDYFDKRRKALT
MGSDKIHHHHHHMNIQQLRYVVAIANSGTFREAAAKLFVSQPSLSVAVRDLETELGFQIFTRTTTGAVLTNQGMTFYENALEVVKSFDSFEKQFSQSEATEQEFSIASQHYDFLPPLITAFSKCNDNFSYFRIFESTTIRILDEVAQGNSEIGIIYINSQNKKGLLQRLDKLGLEFVELIPFKTHIYLGKDHPLASKTSLIMTDLEGLPTVRFTQDRDDYRYYSENFVEVLDSSVTYNVTDRATLNGILERTQAYATGSGFLDSRSVNGITVIPLEDHLDNQMIYIKRKDRNLSQMALKFVAVMEEYFKGFNS
MGSDKIHHHHHHMNKIGYNMFQVDKNYWLVIAPYVYCCIKGKKALLYNTKNWEYLEVENENVIGLLRQLHKRDNLGAVFCEGKMLTELCYSNFISDFVLKEMGGVIDVASFPDKPIQMMPILNLQCDVDKLQQIEDRGIGEDILFNLLEINVFLYNVCDHHCLYCSKYSQQNLCCRVAETETSQVLDISALKSIIAQIRYGVVGRLNLFGGNIWKYPNYNDIPFLLSGFKGQIHIWSHYADFVGNKILDSDFFYDVIVPFPMEEELLRNCIFLLGDLQIKIHFYVTQIDEYAKAEEIVHKYAINDYSIHSTYVGCNLDYFEKYVYMDKGDILQSQYSMSQIFAHQKMNSHFFGSLSISVNGDVYANLNSLVLGNIYKDSLIDIVNKEMLDNTAWRKIRNDYPCCDCIYQWLCPSPSNYELAIGKPNLCHVKP
MGSDKIHHHHHHMNLGNPIAKGNTAEIYLYDNKIMKLFKDYLPNTESMNEAKKQKYAYSCGLPVPNVFEVTKIQNRQAIIMEYVKGDSIGDLLLNNLNEAEYYINICVNEQKKIHAIHVNTDEMEAMGERLERQIKSVHKLDEKQKESILNKLHSIKLDPRLCHGDFHPFNLILSEKNVSIIDWIDASSGDIRADLFRTYLLYSQSSVELAEKYLHIYCRNTGLSRDEIFQWAPIIIAARISENVTATNIEYLNDLVAQYCN
MGSDKIHHHHHHMNLKNTKAGFLLSAEHEKLPIAELNALIDIFSLEGNLNCFKNYVILDSSISEEIIKKMVKRGGYTNEGHVIFSESPIINQNVDETLENFFKSSETLDFPVERDETFAVRVLKLEKESPFNSMEIERKLGGIIKKKTSAQVSLKNPSKTVKVVISNDKMYTGIVIEKRDVEYFQNNRPHLRAYFHPGCIMPKLARCLVNLSRVKEGEIVLDPFCGTGGFLIEAGFLGCKLIGSDIDEQMVNGALLNLNTYDLSKQVISIKENDAKNVSKYLEALKIEKIDGIVTDPPYGISTSKKGDMLEIFEKIVDVLKDNDYLVFAAPNKMELDLNLVEFYEMRVHKSLTRYIHVYRKN
MGSDKIHHHHHHMNLSNDSLNKSDISPAVAQQAVGWLLEMQEGALDARRQHAWQSWLNGNSEHQRAWAHMQRVNQRLSGLSSPLAHAALGAPKSAGRRHALKLLLLLGAGSMAGWSLREQIALQPLLADYNSGVGEQRKVALSDGSRVQLNTASAVDVRFDAQQRLIKLLQGELLMSASADARPLNLLSAQGTVRASTGSSRFNLRQLDGRTQLAVFAGAIEVAPANKSGPGLMLRASQQVTFGRDAWDSVRTVDANSGAWADGMLVASRMKLSDFLAELGRYRRGRLNCDANVADLLISGSYPLADSERILDMLQLALPVRVQRFTRYWVNVQARV
MGSDKIHHHHHHMNMLLSEEQRDALQELMNISMGQAANSLARLIEAKITLSIPKISDVTPEQFVSMLSDQTMWYTRQSFLGSIKGEVISTLSKQGCDAIGKLMDYQPPLTQDRLNELLLELANILAGACLTGFAEQLSLNAKLSMPTMYSATSQHYHYRWASTLMMEVEFKVEVSQFDSKIVICLEEASVQTLLAKLQQLLE
MGSDKIHHHHHHMNNFFTRVDNLSRLSVEKHNVAFSLFDWPAHIAEDTWWQSPDVLSIALTDHIEQWDEAQLIKLAKWECINSFSLNYTGELELIQEVSRILDKVALSDAREYLYHLIDEENQHMWYFQKFCRAYGGKVYPNKKFQIEKQLMSPAKEHFLVFARILIFEEIGHYYNIQNARDSRVHPFVREINEAHYKDESRHIAYGRQVLEHLAKDAITDEGDALWLGQQLDKSIAINIAALYNPQAYRDAGITKGMALRESLLNHPNRIELHETKLLGSFKRHAERLGITLTDTRK
MGSDKIHHHHHHMNNIYSDIYEKLSTLQWLMKRHQMFCQAESGPFADTSRGQGRILAMLKIQPEIATKELAYLLGIRQQSLNELLNKMEKNGYVERKPSENDKRVMIVHLTEKGKQVQQPKTDYQNIFNCLLPEELLQMSQYLDRIIEAFQLQNGNALEENNMIDWMAQARERMGDEHFEQLMSMRERAFGHMRPPKDIPGAERFSENYNGYVPDRDGFQPRNFRPDIK
MGSDKIHHHHHHMNPSSRHPQHSDTAASGASEGVPRRYASGRQYELRRGDALAVVTELAAGLRLYSRGGVQLTETYGDGDIPPGATGITLAPWANRVEDGVWYLNGKKQQLDITEVSRNNASHGLLRNAAYELVDEAEFSVTLEAPVFPQHGYPFLVRHRVQYLLAEDLGLVVRQTLLNDSQAPAPFVLGAHPYLRLGDVPASDLVLTVGTGSRLVADERLIPRSSEQVDGATDLRGGRTVSELDIDVAYTDLTFDGGVARQTLKASDGRSVSLWQDENCSYVHVFVTDQYPGRAKAVAIEPMTGPANAFNSGDGLRWLPAGESFTMTWGISASL
MGSDKIHHHHHHMNQTTLNTIRNYVMQASAQWISDFNQGNVQTCINRYLPSATMQVHPFGKFTSIEAIADFWLEFAKSNPSDLVYRNIEIKVLNDRQAVLSANWRMNIASGFISKELWTLAEDGQWYLEEDDFTVLAQHTKPVDDKRTALVLVDLQNDYFSGGRFELDNTDSAAKQASQLLAHFRQKELPVIHMQHLFEETNAAFFSANTVGAEIESSVKPTANEPVIIKHQIDSFIETTLEQTLVELGIDNLVIVGAMAQACVQTLCRSAVNKGYKCQVISDAIAAPKLEYQQHSFTGGQLVAANLLSLSFGGADITDTKGWLQENK
MGSDKIHHHHHHMNRGKALQLVKPHLTEHRYQHTIGVMETAIDLAKLYGADQQKAELAAIFHDYAKFRDKNEMRTLIREKLSQQDILFYGDELLHAPCGAYYVREEVGIEDEDVLQAIRFHTTGRPNMSLLEKIIFLADYIEPNRQFPGVEKVRTQAKTDLNGAIISSLVNTITFLLKKNQPIYPDTLATYNQLLLEQK
MGSDKIHHHHHHMNRLEIVNNISTNIERERIKLGMSQAQFAKALDMSLSTYKRIANGESSRIDVYTAYLIYKLTGRFSCELTGFNDDVINLVKRIKKLSKSQRILIDSIIDTELALSAYKDESCHTEDLISVLIPTGNMTDGMILDSYNVEKLDVSNYRKAFGDALHIGIRITSNHLHPVYNKGDILLISRNPIRDGDTGIFINAQNKRAYIRKLHQKNPCELTPINNYGETFYVDSDNVDDMSKWIKFGHVLCKVR
MGSDKIHHHHHHMNRYLIIARVGDNSLHPTWINSEKRNFDLFISYFGNEEKKYSEHADYYEHMKGGKWPIISRLIDKNWEIISKYDAVWFPDDDLLVDTNSICKMFDLFSAFDLSLAQPALSMDSYFSHPCLLQQKKSIIRFTNFVEVMAPIFSLSSLERVKHTFSQSKSGWGLDFLWPHMINGKIGIIDVTPVIHTRPIGGELYKLNPELSPKMDIVKLQEIYPDIILNKKYKKNKFKVFSQILETRTLNEKMAYFKGKVQVALAKKVSKETKKYGA
MGSDKIHHHHHHMNSIFTEENLLAFTTAARFGSFSKAAEELGLTTSAISYTIKRMETGLDVVLFTRSTRSIELTESGRYFFRKATDLLNDFYAIKRRIDTISQGIEARVRICINQLLYTPKHTARLLQVLKKQFPTCQITVTTEVYNGVWDAIINNQANIAIGAPDTLLDGGGIDYTEIGAIRWAFAIAPDHPLAFVPEPIAESQLRLYPNIMVEDTAHTINKKVGWLLHGQESILVPDFNTKCQCQILGEGIGFLPDYMVREAMTQSLLVTRQIHNPRQDSRMLLATQHSATGQVTQWIKKQFAPNGILTGIYQDLLHREN
MGSDKIHHHHHHMNSILINHKAKADISISCFGEVLWDCFPDGKRVGGAPLNVCVRLNALGIKGSMISAVGDDPLGHELVSFIDDRGVNRDCIAIDPVKSTSTVQVTLDKNGSASYDIVADTAWDNIALTEDIIEQVNRTDVLVFGSLIGRNDVSLNTLTALVKLASFSVFDVNLRAPHYQIDSVINLMKKADFIKLNDDELYEIAKAMGSPFHSLEQNLDFVAIQTNTDYLCVTKGSHGALLSIGGQKYYNSGYLVNVVDTVGAGDSFLGSLLYQLCSDSNPQYAIDFACAVGAMVAESHGATPMITLNEIQAFMHPV
